Experimental data reported in PMC8389850, “The PilB-PilZ-FimX regulatory complex of the Type IV pilus from Xanthomonas citri” (PLoS Pathogens, 2021).

Assays:
[1] = molecular target: PilZ_(W69_5OHW) (Xanthomonas citri pv. citri strain 306); experiment: other fluorescence titration
[2] = molecular target: PilB_(12-163) (Xanthomonas citri pv. citri strain 306); experiment: SEC-MALS
[3] = molecular target: PilB_(1-190), His tag removed (Xanthomonas citri pv. citri strain 306); experiment: SEC-MALS
[4] = molecular target: full-length FimX (Xanthomonas citri pv. citri strain 306); experiment: SEC-MALS; full-length proteins and complexes; silica-based WTC column 7.8/300; 50 mM Tris-HCl pH 8.0, 50 mM NaCl, 5 mM MgCl2; without and with ATPγS and/or c-di-GMP (1:2 protein to ligand)

FimXEAL (domain or fragment) gave a Kd [1] of 200 nM.

“His-tagged PilB_(1-190) (from UniProt A0AAI7ZH88 1-190) (domain or fragment)” was tested, and the Kd [1] was under 4.1 nM.

Work on “PilZ (XAC1133), wild type, recombinant (from UniProt A0AAI7ZDW4 1-117) (natural protein)” yielded a stoichiometry N [2] of 1 and a stoichiometry N [3] of 1.

Work on full-length FimX (natural protein) yielded a stoichiometry N [4] of 2.
